Experiments:
Conditions in all cases: 20 nM; 72 h
MCF10A [1] = assay: percent viability (nuclei count relative to siNT); higher = more viable cells
Procedure: (§1)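 After 72 h, cells were fixed and stained with Hoechst and anti-fibrillarin, and nucleoli per nucleus were counted with CellProfiler. Values are plate-adjusted percent effect for the one-nucleolus and 5+ nucleoli phenotypes, normalised to siNT (0%) and to the positive controls siNOL11 or siKIF11 (100%), as the mean of biological triplicates. Percent viability is the nuclei count relative to siNT.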

MCF10A [2] = assay: one-nucleolus phenotype percent effect (relative to siNT 0% and siNOL11 100%); higher = more cells with one nucleolus (ribosome biogenesis inhibition)
Procedure: as §1

MCF10A [3] = assay: 5+ nucleoli phenotype percent effect (relative to siNT 0% and siKIF11 100%); higher = more cells with five or more nucleoli
Procedure: as §1

| Sequence | percent viability (MCF10A [1]) [%] | one-nucleolus phenotype percent effect (MCF10A [2]) [%] | 5+ nucleoli phenotype percent effect (MCF10A [3]) [%] |
| --- | --- | --- | --- |
| AAAGACCGUGACUACUUUUGCA [hsa-miR-548ao-3p] | 80.6 | 18.2 | -18.1 |
| AAAGACUCUGCAAGAUGCCU [hsa-miR-4432] | 67.3 | -5.81 | -6.99 |
| AAAGAUAGACAAUUGGCUAAAU [hsa-miR-4662a-3p] | 83.7 | -23.7 | 4.11 |
| AAAGAUCUGGAAGUGGGAGACA [hsa-miR-3156-5p] | 43.6 | -18.8 | 45.1 |
| AAAGAUGGACAAUUGGCUAAAU [hsa-miR-4662b] | 38.3 | 49.4 | -25.7 |
| AAAGCGCUUCCCUUCAGAGUG [hsa-miR-518e-3p] | 48.9 | 9.91 | -27.4 |
| AAAGCUGGGUUGAGAAGG [hsa-miR-320e] | 28.6 | 3.44 | 2.27 |
| AAAGGAAAGUGUAUCCUAAAAG [hsa-miR-651-3p] | 139 | -19.5 | 37 |
| AAAGGAUUCUGCUGUCGGUCCCACU [hsa-miR-541-5p] | 51.1 | 12.6 | -28.2 |
| AAAGGUAACUGUGAUUUUUGCU [hsa-miR-548ba] | 146 | -24.2 | 38.2 |
| AAAGGUAAUUGCAGUUUUUCCC [hsa-miR-548ai] | 155 | -23.8 | 16.1 |
| AAAGGUAAUUGCAGUUUUUCCC [hsa-miR-570-5p] | 95.2 | -30.8 | 56.8 |
| AAAGGUAAUUGUGGUUUCUGC [hsa-miR-548ag] | 75.7 | -6.82 | 4.63 |
| AAAGGUCAUUGUAAGGUUAAUGC [hsa-miR-3974] | 39.8 | 63.7 | -42 |
| AAAGGUGCUCAAAUUAGACAU [hsa-miR-4735-3p] | 21.4 | 43 | -26.8 |
| AAAGUAGCUGUACCAUUUGC [hsa-miR-562] | 83.9 | -28.9 | 57 |
| AAAGUCUCGCUCUCUGCCCCUCA [hsa-miR-3184-3p] | 172 | -19.6 | 41.1 |
| AAAGUGCAUCCUUUUAGAGGUU [hsa-miR-519b-3p] | 104 | -24 | 75.9 |
| AAAGUGCAUCCUUUUAGAGUGU [hsa-miR-519a-3p] | 160 | -15.2 | 44.1 |
| AAAGUGCAUCUUUUUAGAGGAU [hsa-miR-519c-3p] | 119 | -25.5 | 110 |
| AAAGUGCUGCGACAUUUGAGCGU [hsa-miR-372] | 64.2 | -16.8 | 52.4 |
| AAAGUGCUUCCCUUUGGACUGU [hsa-miR-520a-3p] | 60.8 | -9.18 | 40.6 |
| AAAGUGCUUCCUUUUAGAGGG [hsa-miR-520b] | 70.9 | -19.2 | 70.5 |
| AAAGUGCUUCCUUUUAGAGGGU [hsa-miR-520c-3p] | 74.6 | -14.7 | 44.6 |
| AAAGUGCUUCCUUUUUGAGGG [hsa-miR-520e] | 84.4 | -14.9 | 57.7 |

From the supplement of paper PMC10899765
